How the values were obtained:
[1] = biological target: biotinylated anti-human CD3ε antibody (capture surface of Example 6); assay: SPR Biacore T200; IgG 1 ug/ml over captured biotinylated anti-human CD3ε antibody, normalised to anti-human IgG surface and to the unstressed sample; sample stressed 14 d/37° C. pH 7.4
[2] = biological target: biotinylated anti-human CD3ε antibody (capture surface of Example 6); assay: SPR Biacore T200; IgG 1 ug/ml over captured biotinylated anti-human CD3ε antibody, normalised to anti-human IgG surface and to the unstressed sample; sample stressed 14 d/40° C. pH 6.0

Binder | Relative active concentrations (%) [1] [%] | Relative active concentrations (%) [2] [%]
P1AF1284 H2L2 anti-idiotypic IgG1 (antibody, V domains shown) VH: QVQLVQSGSELKKPGASVKVSCKASGYTVTDYSMNWVRQAPGQGLEWMGWINTETGEPRYTDDFTGRFVFSLDTSVSTAYLQISSLKAEDTAVYYCAREGDYDVFDYWGQGTLVTVSS VL: DIVMTQSPDSLAVSLGERATINCKSSKSVSTSSYSYMHWYQQKPGQPPKLLIKYVSYLESGVPDRFSGSGSGTDFTLTISSLQAEDVAVYYCQHSREFPYTFGQGTKLEIK | 93 | 98
P1AF1285 H3L2 anti-idiotypic IgG1 (antibody, V domains shown) VH: QVQLVQSGSELKKPGASVKVSCKASGYTVTDYSMNWVRQAPGQGLEWMGWINTETGEPRYTQGFKGRFVFSLDTSVSTAYLQISSLKAEDTAVYYCAREGDYDVFDYWGQGTLVTVSS VL: DIVMTQSPDSLAVSLGERATINCKSSKSVSTSSYSYMHWYQQKPGQPPKLLIKYVSYLESGVPDRFSGSGSGTDFTLTISSLQAEDVAVYYCQHSREFPYTFGQGTKLEIK | 94 | 97
P1AF1287 H7L5 anti-idiotypic IgG1 (antibody, V domains shown) VH: QVQLVQSGAEVKKPGASVKVSCKASGYTVTDYSMNWVRQAPGQGLEWMGWINTETGEPRYTDDFKGRVTMTRDTSISTAYMELSRLRSDDTAVYYCAREGDYDVFDYWGQGTLVTVSS VL: DIVMTQSPDSLAVSLGERATINCRASKSVSTSSYSYMHWYQQKPGQPPKLLIYYVSYLESGVPDRFSGSGSGTDFTLTISSLQAEDVAVYYCQHSREFPYTFGQGTKLEIK | 80 | 98
P1AF1286 H3L3 anti-idiotypic IgG1 (antibody, V domains shown) VH: QVQLVQSGSELKKPGASVKVSCKASGYTVTDYSMNWVRQAPGQGLEWMGWINTETGEPRYTQGFKGRFVFSLDTSVSTAYLQISSLKAEDTAVYYCAREGDYDVFDYWGQGTLVTVSS VL: DIVMTQSPDSLAVSLGERATINCRASKSVSTSSYSYMHWYQQKPGQPPKLLIKYVSYLESGVPDRFSGSGSGTDFTLTISSLQAEDVAVYYCQQSREFPYTFGQGTKLEIK | 87 | 97
P1AF1281 H1L1 anti-idiotypic IgG1 (antibody, V domains shown) VH: QVQLVQSGSELKKPGASVKVSCKASGYTVTDYSMNWVRQAPGQGLEWMGWINTETGEPRYTDDFKGRFVFSLDTSVSTAYLQISSLKAEDTAVYYCAREGDYDVFDYWGQGTLVTVSS VL: DIVMTQSPDSLAVSLGERATINCRASKSVSTSSYSYMHWYQQKPGQPPKLLIKYVSYLESGVPDRFSGSGSGTDFTLTISSLQAEDVAVYYCQHSREFPYTFGQGTKLEIK | 93 | 99
P1AF1283 H1L2 anti-idiotypic IgG1 (antibody, V domains shown) VH: QVQLVQSGSELKKPGASVKVSCKASGYTVTDYSMNWVRQAPGQGLEWMGWINTETGEPRYTDDFKGRFVFSLDTSVSTAYLQISSLKAEDTAVYYCAREGDYDVFDYWGQGTLVTVSS VL: DIVMTQSPDSLAVSLGERATINCKSSKSVSTSSYSYMHWYQQKPGQPPKLLIKYVSYLESGVPDRFSGSGSGTDFTLTISSLQAEDVAVYYCQHSREFPYTFGQGTKLEIK | 94 | 97
